Measurements taken from paper PMC5027247.

What was measured:
Assay in all cases: ITC; 25 °C; 50 mM Tris pH 7.5, 100 mM NaCl, 1 mM EDTA, 1 mM DTT; 1 mM TBK1 fragment in the syringe, 0.1 mM OPTN or NAP1 fragment in the cell; one-site binding model
[1] = biological target: OPTN M44Q (ITC sample) (human) (UniProt Q96CV9)
[2] = biological target: OPTN L47Q (ITC sample) (human) (UniProt Q96CV9)
[3] = biological target: OPTN L54Q (ITC sample) (human) (UniProt Q96CV9)

Kd [1]: 22.6 µM
Kd [2]: 26 µM
Kd [3]: 20 µM
B1: TBK1 CTD (residues 677–729) (domain or fragment)
chain: YPSSNTLVEMTLGMKKLKEEMEGVVKELAENNHILERFGSLTMDGGLRNVDCL
